Legend:
[1] = biological target: T1, Human c-Met membrane protein on cells (human, UniProt P08581 25-932); test: cell-based or functional assay
[2] = biological target: T2, Human EGFR membrane protein on cells (human, UniProt P00533 25-645); test: cell-based or functional assay
[3] = biological target: T3, Recombinant human EGFR-HIS (Acrobiosystems, EGR-H5222) (human, UniProt P00533 25-645); test: ELISA, EGFR-HIS coated, anti-human IgG Fc detection
T3 construct: Bought reagent; not shown: His tag

[4] = biological target: T4, Recombinant human c-Met-HIS (Acrobiosystems, C-MET-H5227) (human, UniProt P08581 25-932); test: ELISA, C-MET-HIS coated, anti-human IgG Fc detection
T4 construct: Bought reagent; also called HGFR-his; HGFR-HIS; not shown: His tag

[5] = biological target: T2, Human EGFR membrane protein on cells; test: flow cytometry on CHO-K1 cells overexpressing human EGFR
[6] = biological target: T1, Human c-Met membrane protein on cells; test: flow cytometry on CHO-K1 cells overexpressing human c-Met
[7] = biological target: Human C1q (Abcam, Cat No. AB282858) (human, UniProt P02745 23-245; P02746 28-253; P02747 29-245, limits assumed); test: BLI (Octet R8), antibody on FAB2G sensor, C1q in solution
[8] = biological target: T5, Human FcγRIIA (CD32a) (ACRO, Cat No. CDA-H5221) (human, UniProt P12318 36-218, limits assumed); test: BLI (Octet R8), antibody on ProA sensor, CD32a in solution
T5 construct: Used in solution against antibody on ProA sensors
T5 sequence (looked up): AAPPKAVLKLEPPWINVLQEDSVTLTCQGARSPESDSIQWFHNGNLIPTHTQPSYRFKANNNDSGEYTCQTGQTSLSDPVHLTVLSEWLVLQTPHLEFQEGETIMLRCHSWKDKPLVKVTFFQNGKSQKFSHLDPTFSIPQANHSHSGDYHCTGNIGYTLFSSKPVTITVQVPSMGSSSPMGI

[9] = biological target: T6, Human FcγRIIIA (CD16a-V176) (ACRO, Cat No. CD8-H52H4) (human, UniProt P08637 17-208); test: BLI (Octet R8), receptor on HIS1K sensor, antibody in solution
T6 construct: Immobilised on HIS1K (anti-His) sensors, so His-tagged; tag not described

[10] = biological target: T7, Human FcγRIIIA (CD16a-F176) (ACRO, Cat No. CDA-H5220) (human, UniProt P08637 17-208); test: as above
T7 construct: Immobilised on HIS1K (anti-His) sensors, so His-tagged; tag not described

[11] = biological target: T8, Human FcγRIIIB (CD16b) (ACRO, Cat No. CDB-H5227) (human, UniProt O75015 17-200); test: as above
T8 construct: Immobilised on HIS1K (anti-His) sensors, so His-tagged; tag not described

[12] = biological target: T9, Human FcγRIIB/C (CD32b/c) (ACRO, Cat No. CDB-H5228) (human, UniProt P31994 46-217, limits assumed); test: as above
T9 construct: Immobilised on HIS1K (anti-His) sensors, so His-tagged; tag not described
T9 sequence (looked up): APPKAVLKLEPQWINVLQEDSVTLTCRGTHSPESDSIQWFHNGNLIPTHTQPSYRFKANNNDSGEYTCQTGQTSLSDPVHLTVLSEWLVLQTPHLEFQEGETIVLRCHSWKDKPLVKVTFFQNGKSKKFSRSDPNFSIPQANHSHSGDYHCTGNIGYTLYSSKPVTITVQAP

[13] = biological target: T10, Human FcγRI (CD64) (ACRO, Cat No. FCA-H52H1) (human, UniProt P12314 16-288, limits assumed); test: as above
T10 construct: His-tagged (CD64-His), immobilised on HIS1K sensors; tag not described; also called CD64-His

[14] = biological target: T11, Human FcRn (ACRO, Cat No. FCM-H8286) (human, UniProt P55899 24-297; P61769 21-119, biotinylated (Bio-FcRn, site not stated)); test: BLI (Octet R8), biotinylated FcRn on SA sensor, antibody in solution
T11 construct: immobilised on SA (streptavidin) sensors; also called Bio-FcRn

[15] = biological target: T4, Recombinant human c-Met-HIS …; test: BLI (Octet R8), affinity for c-Met-his compared with affinity for EGFR-HIS
[16] = biological target: T3, Recombinant human EGFR-HIS …; test: BLI (Octet R8), antibody captured on AHC2 sensor, EGFR-His in solution
[17] = biological target: T4, Recombinant human c-Met-HIS …; test: BLI (Octet R8), antibody captured on AHC2 sensor, c-Met-HIS in solution
[18] = biological target: T12, HGFR-hfc (Acrobiosystems, Cat No. MET-H5256) (human, UniProt P08581 25-932); test: blocking ELISA, HGFR-hfc coated, HGF-HIS as competitor ligand, anti-His detection
T12 construct: Bought reagent; also called human HGFR protein; receptor c-Met; not shown: human Fc (hfc)

B1: Anti-c-Met/EGFR bispecific antibody BT461-DB (bispecific antibody, human IgG1, kappa)
light 1: DIQMTQSPSSLSASVGDRVTITCRSSQNIVHSNGNTYLDWYQQTPGKAPKLLIYKVSNRFSGVPSRFSGSGSGTDFTFTISSLQPEDIATYYCFQYSHVPWTFGQGTKLQITRTVAAPSVFIFPPSDEQLKSGTASVVCLLNNFYPREAKVQWKVDNALQSGNSQESVTEQDSKDSTYSLSSTLTLSKADYEKHKVYACEVTHQGLSSPVTKSFNRGEC
heavy 1: not shown
light 2: DIQMTQSPSSLSASVGDRVTITCSVSSSVSSIYLHWYQQKPGKAPKLLIYSTSNLASGVPSRFSGSGSGTDFTLTISSLQPEDFATYYCQVYSGYPLTFGGGTKVEIKRTVAAPSVFIFPPSDEQLKSGTASVVCLLNNFYPREAKVQWKVDNALQSGNSQESVTEQDSKDSTYSLSSTLTLSKADYEKHKVYACEVTHQGLSSPVTKSFNRGEC
heavy 2: not shown
notes: DuoBody format, assembled in vitro by Fab arm exchange from BT461-DB-EGFR and BT461-DB-c-Met; parents expressed in FUT8 knock-out CHO-K1 cells (no fucose); also called BT461 with Duobody structure
- EC50 of Antibody-Mediated ADCC Killing Curves (ADCC Reporter Bioassay, CHOK1-c-Met target cells) [1]: 0.162 µg/mL
- EC50 of Antibody-Mediated ADCC Killing Curves (ADCC Reporter Bioassay, CHOK1-EGFR target cells) [2]: 0.185 µg/mL
- EC50 [3]: 1.3 µg/mL
- EC50 [4]: 0.00822 µg/mL
- EC50 [5]: 1.73 µg/mL
- EC50 [6]: 0.266 µg/mL
- Kd [7]: 11.2 nM
- Kd [8]: 1520 nM
- Kd [9]: 26.5 nM
- Kd [10]: 330 nM
- Kd [11]: 14400 nM
- Kd [12]: 1650 nM
- Kd [13]: 8.97 nM
- Kd [14]: 228 nM
- fold difference between the affinities of the two arms (c-Met-his against EGFR-HIS) [15]: > 20 fold
- Kd [16]: 21.9 nM
- koff [16]: 0.0033 s⁻¹
- kon [16]: 151000 M⁻¹ s⁻¹
- Kd [17]: 0.766 nM
- koff [17]: 0.000213 s⁻¹
- kon [17]: 278000 M⁻¹ s⁻¹
- IC50 [18]: 0.456 µg/mL
